Results on one sequence are retold here after patent US8034355.

The data set deals with VSV L protein (wild type, rVSV) (Vesicular stomatitis Indiana virus) (UniProt P03523). The following applies: 5' Gppp cap (7mGpppAm when fully methylated).
UniProt P03523, sequence (P03523 whole entry): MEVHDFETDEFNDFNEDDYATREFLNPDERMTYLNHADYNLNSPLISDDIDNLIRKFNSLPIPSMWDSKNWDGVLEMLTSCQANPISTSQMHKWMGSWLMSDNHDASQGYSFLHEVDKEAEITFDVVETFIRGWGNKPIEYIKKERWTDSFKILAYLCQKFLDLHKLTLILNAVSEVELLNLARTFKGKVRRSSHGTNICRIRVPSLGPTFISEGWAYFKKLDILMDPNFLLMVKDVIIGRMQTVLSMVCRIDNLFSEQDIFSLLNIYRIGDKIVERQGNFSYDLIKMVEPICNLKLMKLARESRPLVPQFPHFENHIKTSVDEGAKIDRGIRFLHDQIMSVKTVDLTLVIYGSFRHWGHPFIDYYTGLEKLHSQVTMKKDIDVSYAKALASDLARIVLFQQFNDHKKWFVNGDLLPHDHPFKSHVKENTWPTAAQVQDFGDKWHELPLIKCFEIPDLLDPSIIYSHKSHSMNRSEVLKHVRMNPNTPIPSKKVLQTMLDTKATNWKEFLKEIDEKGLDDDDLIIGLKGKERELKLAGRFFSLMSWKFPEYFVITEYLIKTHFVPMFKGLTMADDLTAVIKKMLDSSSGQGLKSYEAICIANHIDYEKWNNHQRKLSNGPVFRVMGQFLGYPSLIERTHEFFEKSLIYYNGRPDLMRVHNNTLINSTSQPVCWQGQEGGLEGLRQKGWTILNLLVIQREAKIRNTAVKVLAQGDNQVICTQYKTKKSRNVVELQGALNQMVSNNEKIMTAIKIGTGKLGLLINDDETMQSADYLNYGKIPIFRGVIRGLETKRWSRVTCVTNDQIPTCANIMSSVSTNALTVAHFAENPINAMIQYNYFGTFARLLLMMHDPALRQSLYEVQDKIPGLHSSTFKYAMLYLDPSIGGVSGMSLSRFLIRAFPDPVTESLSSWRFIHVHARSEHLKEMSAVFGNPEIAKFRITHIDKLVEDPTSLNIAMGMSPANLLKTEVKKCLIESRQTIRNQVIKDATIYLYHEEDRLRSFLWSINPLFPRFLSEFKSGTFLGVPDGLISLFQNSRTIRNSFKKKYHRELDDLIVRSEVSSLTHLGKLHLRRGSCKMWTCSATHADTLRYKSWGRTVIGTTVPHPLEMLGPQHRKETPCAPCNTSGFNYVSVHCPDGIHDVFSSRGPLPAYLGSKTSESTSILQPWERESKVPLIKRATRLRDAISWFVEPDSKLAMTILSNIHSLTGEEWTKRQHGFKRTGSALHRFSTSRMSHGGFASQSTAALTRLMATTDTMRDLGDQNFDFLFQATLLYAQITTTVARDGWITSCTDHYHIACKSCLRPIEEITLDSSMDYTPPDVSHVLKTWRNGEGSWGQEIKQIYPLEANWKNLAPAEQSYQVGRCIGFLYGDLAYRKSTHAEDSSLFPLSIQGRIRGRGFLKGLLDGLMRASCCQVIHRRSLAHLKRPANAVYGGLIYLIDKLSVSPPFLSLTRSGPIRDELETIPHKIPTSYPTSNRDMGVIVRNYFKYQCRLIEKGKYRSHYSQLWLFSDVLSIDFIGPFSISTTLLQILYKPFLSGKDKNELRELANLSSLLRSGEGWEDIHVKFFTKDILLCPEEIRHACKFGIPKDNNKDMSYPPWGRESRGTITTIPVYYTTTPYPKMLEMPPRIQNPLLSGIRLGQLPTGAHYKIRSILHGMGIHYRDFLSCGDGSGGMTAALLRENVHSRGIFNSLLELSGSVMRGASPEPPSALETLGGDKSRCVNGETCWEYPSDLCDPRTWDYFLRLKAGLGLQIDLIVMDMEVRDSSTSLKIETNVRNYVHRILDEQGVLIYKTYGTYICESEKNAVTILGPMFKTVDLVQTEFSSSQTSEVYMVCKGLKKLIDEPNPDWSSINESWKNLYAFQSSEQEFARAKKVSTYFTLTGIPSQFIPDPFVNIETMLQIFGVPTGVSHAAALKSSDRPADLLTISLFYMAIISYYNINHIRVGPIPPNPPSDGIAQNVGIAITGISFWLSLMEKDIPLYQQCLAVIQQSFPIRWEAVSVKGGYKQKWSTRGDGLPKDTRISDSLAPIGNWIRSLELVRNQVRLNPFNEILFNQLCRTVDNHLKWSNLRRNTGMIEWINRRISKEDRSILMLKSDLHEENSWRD

Consider AACAG, for which the activity (% 7mGp of released cap) was determined as 97.
